For the first test, the target named is T1, WIPI3-Δloop (human, UniProt Q5MNZ6 1-344, Blade 2 B-C loop (75-80) deleted | Blade 6 C-D loop (264-281) deleted). Briefly: ITC. Background: In ITC the heat of successive injections is recorded.
T1 sequence (Q5MNZ6 other isoform, or with tags, fused parts or gaps with the stated changes): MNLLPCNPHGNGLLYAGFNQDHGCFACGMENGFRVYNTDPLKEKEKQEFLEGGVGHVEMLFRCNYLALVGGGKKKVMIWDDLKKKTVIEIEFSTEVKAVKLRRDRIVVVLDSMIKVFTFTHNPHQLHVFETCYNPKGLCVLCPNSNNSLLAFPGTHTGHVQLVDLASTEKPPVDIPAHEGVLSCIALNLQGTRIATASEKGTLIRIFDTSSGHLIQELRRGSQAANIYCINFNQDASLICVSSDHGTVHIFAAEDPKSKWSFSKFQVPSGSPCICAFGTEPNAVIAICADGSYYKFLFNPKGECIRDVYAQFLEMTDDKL
As usually defined, the Kd is the free concentration of one partner at which half of the binding sites on the other are occupied at equilibrium, for simple one-to-one binding. The low end stands for a tighter complex, the high end for a looser complex. Take PRDGEPAVTQLHPGPIVVRDGYFSRPIGSTD [GB1-tagged WIR-peptide V1380A]: binding was characterised by a dissociation constant (Kd) of 36.9 µM.
PRDGEPVVAQLHPGPIVVRDGYFSRPIGSTD [GB1-tagged WIR-peptide T1382A] came in with a Kd of 14.2 µM.
PRDGEPVATQLHPGPIVVRDGYFSRPIGSTD [GB1-tagged WIR-peptide V1381A] returned a Kd of 75.9 µM.
Consider PRDGEPQVTQLHPGPIVVRDGYFSRPIGSTD [GB1-tagged WIR-peptide V1380Q], for which the affinity, expressed as Kd, was 14.1 µM.

Another test concerns the target T1, WIPI3-Δloop. Briefly: ITC. The source holds these as a separate data set.
Molecule PRDGEPVQTQLHPGPIVVRDGYFSRPIGSTD [GB1-tagged WIR-peptide V1381Q] showed a Kd of 82 µM.
Consider PRDGEPVVTQLHPGPIVVRDGAFSRPIGSTD [GB1-tagged WIR-peptide Y1395A], for which the equilibrium dissociation constant (Kd) is 391 µM.
Same read-out and setting: then PRDGEPVVTQLHPGPIVVRAGYFSRPIGSTD [GB1-tagged WIR-peptide D1393A], with 44.4 µM; and PRDGEPVVTQLHPGPIVQRDGYFSRPIGSTD [GB1-tagged WIR-peptide V1391Q], with 48.9 µM.
Same read-out and setting: then PRDGEPVVQQLHPGPIVVRDGYFSRPIGSTD [GB1-tagged WIR-peptide T1382Q], with 37.2 µM; and PRDGEPVVTQLHPGPQVVRDGYFSRPIGSTD [GB1-tagged WIR-peptide I1389Q], with 379 µM.

Source of the values: PMC7264293 (2020).
